Molecular target: N-terminally GFP-tagged mouse ClC-3c (mouse)
Assay: FRET or BRET; FLIM-FRET (phasor analysis of the donor lifetime) in living SH-SY5Y cells transfected with the IRES construct; GFP on ClC-3 as donor, mCherry on ClC-4 as acceptor; regions of interest at the plasma membrane or intracellular areas of intermediate fluorescence; tauD from cells expressing only the donor

Chain of N-terminally GFP-tagged mouse ClC-3c (mouse) (P51791 whole entry): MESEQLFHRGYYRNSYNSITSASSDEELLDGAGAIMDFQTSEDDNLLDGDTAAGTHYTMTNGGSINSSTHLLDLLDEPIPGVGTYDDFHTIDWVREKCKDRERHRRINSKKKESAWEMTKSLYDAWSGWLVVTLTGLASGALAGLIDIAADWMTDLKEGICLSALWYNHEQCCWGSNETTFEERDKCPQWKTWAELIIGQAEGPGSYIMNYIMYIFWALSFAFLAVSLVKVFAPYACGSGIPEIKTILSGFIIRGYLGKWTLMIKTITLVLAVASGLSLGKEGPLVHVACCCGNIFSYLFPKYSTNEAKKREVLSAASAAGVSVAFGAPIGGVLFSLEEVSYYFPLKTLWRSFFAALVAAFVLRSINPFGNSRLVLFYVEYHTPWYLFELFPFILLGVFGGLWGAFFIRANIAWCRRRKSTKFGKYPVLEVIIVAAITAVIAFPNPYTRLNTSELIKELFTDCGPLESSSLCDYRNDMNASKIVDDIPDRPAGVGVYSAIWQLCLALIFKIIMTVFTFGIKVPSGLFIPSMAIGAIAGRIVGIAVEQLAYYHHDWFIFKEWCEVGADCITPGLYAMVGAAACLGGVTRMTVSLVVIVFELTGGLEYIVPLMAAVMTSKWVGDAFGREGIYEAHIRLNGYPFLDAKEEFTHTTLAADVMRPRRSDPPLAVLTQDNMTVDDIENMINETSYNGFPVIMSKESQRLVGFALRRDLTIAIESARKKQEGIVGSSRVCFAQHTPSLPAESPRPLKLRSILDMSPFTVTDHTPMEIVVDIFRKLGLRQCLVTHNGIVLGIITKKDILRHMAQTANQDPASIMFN

“N-terminally mCherry-tagged human ClC-4 (from UniProt P51793 1-760) (natural protein)” gave a donor fluorescence lifetime in the presence of the acceptor (τDA; unquenched donor τD = 2.22ns) of 1.89 ns.

Source: publication PMC12731782
